This passage reports dose limiting toxicities results from US20240190991A1, “COMBINATION THERAPY WITH AN ANTI-CA19-9 ANTIBODY AND FOLFIRINOX IN THE TREATMENT OF CANCER” (BioNTech SE, priority 2021, published 2024).

This data set has as its system locally-advanced or metastatic pancreatic ductal adenocarcinoma (PDAC). Put plainly: Clinical study of MVT-5873 as monotherapy or combined with FOLFIRINOX in pancreatic cancer patients. The class given is in vivo, human. The note with it: Group C patients; MVT 5873 0.5 mg/kg in combination with mFOLFIRINOX; one, two or six cycles of therapy. Here is the method: A clinical study is performed comparing the therapeutic effect of the use of the MVT-5873 monoclonal antibody (5B1 monoclonal antibody) as a monotherapy or in combination with FOLFIRINOX in the treatment of pancreatic cancer, in patients with locally-advanced or metastatic pancreatic ductal adenocarcinoma (PDAC). Patients having other CA19-9-positive malignancies may also be included in the study.
The patients will be subdivided into the following groups: • Group A: A Q4 week monotherapy schedule employing a single dose of MVT 5873 administered 7 days prior to Cycle 1 Day 1 • Group B: A Q2 week monotherapy schedule employing a single dose of MVT 5873 administered 7 days prior to Cycle 1 Day 1 • Group C: A Q2 week schedule in combination with mFOLFIRINOX mFOLFIRINOX is a dose amount of FOLFIRINOX, in which FOLFIRINOX is administered at a dose of 65 mg/m^2 oxaliplatin, 400 mg/m^2 leucovorin, 150 mg/m^2 irinotecan, and 1200 mg/m^2 5-fluorouracil.
In certain groups, the patients, after completing the combination therapy will be administered the antibody having the ability to bind CA 19-9 as a monotherapy.
The administration schedule for Group C is depicted in FIG. 1.
A number of patients in Group C have been administered MVT 5873 at 0.5 mg/kg in combination with mFOLFIRINOX (65 mg/m^2 oxaliplatin, 400 mg/m^2 leucovorin, 150 mg/m^2 irinotecan, and 1200 mg/m^2 5-fluorouracil). […]

Take “MVT 5873: fully human IgG1 monoclonal antibody that targets sialyl Lewis A (sLe^a), an epitope on CA19-9; VH and VL of SEQ ID NO: 2 and 4”: the dose limiting toxicities result is “No dose limiting toxicities”.
